Laboratory results published in patent US20230235004A1 (published 2023).

T1: mouse MAdCAM expressed on cells (mouse, UniProt Q61826 22-405)
T1 construct: whole, on cells
T1 sequence (looked up): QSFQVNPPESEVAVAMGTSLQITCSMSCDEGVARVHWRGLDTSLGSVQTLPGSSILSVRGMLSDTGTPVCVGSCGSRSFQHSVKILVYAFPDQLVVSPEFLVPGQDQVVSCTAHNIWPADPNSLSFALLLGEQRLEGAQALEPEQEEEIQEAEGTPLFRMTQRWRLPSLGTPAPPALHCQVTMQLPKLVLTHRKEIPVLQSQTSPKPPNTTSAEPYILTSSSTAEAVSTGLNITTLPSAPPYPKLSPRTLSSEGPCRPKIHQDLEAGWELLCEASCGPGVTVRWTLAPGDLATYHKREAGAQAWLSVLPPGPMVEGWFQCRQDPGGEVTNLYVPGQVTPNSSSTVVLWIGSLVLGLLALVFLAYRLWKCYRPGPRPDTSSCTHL

T2: human MAdCAM expressed on cells (human, UniProt Q13477 19-382)
T2 construct: whole, on cells
T2 sequence (looked up): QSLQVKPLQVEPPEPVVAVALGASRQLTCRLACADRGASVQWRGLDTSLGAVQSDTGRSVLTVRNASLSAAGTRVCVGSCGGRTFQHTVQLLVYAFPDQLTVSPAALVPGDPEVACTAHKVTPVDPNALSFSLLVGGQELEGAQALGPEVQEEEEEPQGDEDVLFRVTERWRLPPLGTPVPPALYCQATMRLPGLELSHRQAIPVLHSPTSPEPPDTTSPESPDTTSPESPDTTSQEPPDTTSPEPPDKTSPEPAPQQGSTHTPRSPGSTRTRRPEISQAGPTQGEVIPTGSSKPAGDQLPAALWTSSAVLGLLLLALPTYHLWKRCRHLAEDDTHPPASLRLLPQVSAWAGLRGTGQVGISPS


Experiments:
[1] = target: T1, mouse MAdCAM expressed on cells; assay: cell binding
[2] = target: T2, human MAdCAM expressed on cells; assay: cell binding

binding result [1]	binding result [2]	Binder
no binding	binds	MAdCAM antibody Table 1 clone 51 (scFv) scFv: EVQLLESGGGLVQPGGSLRLSCAASGFTFNNYGMNWVRQAPGKGLEWVSRINSDGSSTSYADSVKGRFTISRDNSKNTLYLQMNSLRAEDTAVYYCARGAYYYYYMDVWGQGTLVTVSSGGGGSGGGGSGGGGSGGGGSEIVMTQSPATLSVSPGERATLSCRASQSVSGSYLAWYQQKPGQAPRLLIYATSSRASGIPARFSGSGSGTEFTLTISSLQSEDFAVYYCQQYYSGLTFGQGTKVEIK
no binding	binds	MAdCAM antibody Table 1 clone 47 (scFv) scFv: EVQLLESGGGLVQPGGSLRLSCAASGFSFSDYGMHWVRQAPGKGLEWVSAISGSGGSTYYADSVKGRFTISRDNSKNTLYLQMNSLRAEDTAVYYCARDGGWQPAAILDYWGQGTLVTVSSGGGGSGGGGSGGGGSGGGGSDIQMTQSPSSLSASVGDRVTITCRASQGISNNLNWYQQKPGKAPKLLIYDASNLETGVPSRFSGSGSGTDFTLTISSLQPEDFATYYCQQSYSTPLTFGGGTKVEIK
no binding	binds	MAdCAM antibody Table 1 clone 53 (scFv) scFv: QVQLVQSGAEVKKPGASVKVSCKASGYTFTSYDINWVRQAPGQGLEWMGWMNPNSGNTGYAQKFQGRVTMTRDTSTSTVYMELSSLRSEDTAVYYCAKDSDYSNLLWDYWGQGTLVTVSSGGGGSGGGGSGGGGSGGGGSDIQMTQSPSSLSASVGDRVTITCRASQDITNDLGWYQQKPGKAPKLLIYQASSLESGVPSRFSGSGSGTDFTLTISSLQPEDFATYYCQQSYTIPLTFGQGTKVEIK
no binding	binds	MAdCAM antibody Table 1 clone 52 (scFv) scFv: EVQLLESGGGLVQPGGSLRLSCAASGFTFSNSDMNWVRQAPGKGLEWVAHIWNDGSQKYYADSVKGRFTISRDNSKNTLYLQMNSLRAEDTAVYYCARDRTDPGYSSAMDVWGQGTTVTVSSGGGGSGGGGSGGGGSGGGGSDIQMTQSPSSLSASVGDRVTITCRASQDIRNYLGWYQQKPGKAPKLLIYDASSLETGVPSRFSGSGSGTDFTLTISSLQPEDFATYYCQQATSLPLTFGGGTKVEIK
no binding	binds	MAdCAM antibody Table 1 clone 48 (scFv) scFv: EVQLLESGGGLVQPGGSLRLSCAASGFTFSDHGMHWVRQAPGKGLEWVSVIYGGESTYYADSVKGRFTISRDNSKNTLYLQMNSLRAEDTAVYYCARDPAVAGGGIFDYWGQGTLVTVSSGGGGSGGGGSGGGGSGGGGSDIQMTQSPSSLSASVGDRVTITCRASQGISNYLAWYQQKPGKAPKLLIYDASNLETGVPSRFSGSGSGTDFTLTISSLQPEDFATYYCQQSYSTCYTFGQGTKLEIK
no binding	binds	MAdCAM antibody Table 1 clone 50 (scFv) scFv: QVQLVQSGAEVKKPGASVKVSCKASGYTFTSYDINWVRQAPGQGLEWMGWINPNSGTTGYAQKFQGRVTMTRDTSTSTVYMELSSLRSEDTAVYYCARSPYYYYGMDVWGQGTTVTVSSGGGGSGGGGSGGGGSGGGGSDIQMTQSPSSLSASVGDRVTITCRASHFISRWVAWYQQKPGKAPKLLIYAASTLQSGVPSRFSGSGSGTDFTLTISSLQPEDFATYYCQQSYSGISFGPGTKVDIK
no binding	binds	MAdCAM antibody Table 1 clone 49 (scFv) scFv: QVQLVQSGAEVKKPGASVKVSCKASGDTFTGYYIHWVRQAPGQGLEWMGWINPNSGGTNYAQKFQGRVTMTRDTSTSTVYMELSSLRSEDTAVYYCARSGLWLGSYYGMDVWGQGTLVTVSSGGGGSGGGGSGGGGSGGGGSDIQMTQSPSSLSASVGDRVTITCRASQTISIWLAWYQQKPGKAPKLLIYDASTLQSGVPSRFSGSGSGTDFTLTISSLQPEDFATYYCQQYSSYPLTFGQGTKVEIK
